Experimental data published in the supplement of paper PMC9170038.

System: MS2 coat protein
Experiment: apparent KD of MS2 coat protein; designed switch direction (-1 OFF switch, 1 ON switch): -1; higher = weaker reporter binding
Summary of the method: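 Normalised cluster fluorescence was curve-fitted, and each design's median over clusters is its apparent KD. Before this, SNAP-549-labelled MS2 coat protein was titrated from 0.7 or 1.5 nM, doubling to 3 µM, over RNA switches transcribed on Illumina chips by stalled E. coli RNA polymerase. Titrations had no input, 200 uM small-molecule ligand, or an oligonucleotide input, and steps lasted 0.8–1.5 h (lowest) to 10–20 min (highest).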

[1] = input ligand: microRNA oligo, concentration not stated
[2] = Eterna round: R95, input ligand: microRNA oligo, concentration not stated
[3] = Eterna round: R95, input ligand: FMN 200 uM
[4] = Eterna round: R95, input ligand: none

Sequence	apparent KD of MS2 coat protein (input ligand: FMN 200 uM) [nM]	apparent KD of MS2 coat protein (input ligand: none) [nM]	further results
UAAGAGUGAGGAUAUGCGUCGCUGGUCCGGAUGGACGCAUGACAUGAGGAUCACCCAUGUAGAAGGCACAAAAC [Enxela Mod 5 - Jieux - Exclusion 2] (Eterna round: R97, puzzle: Exclusion 2)	23.5	23.5	–
ACAUGAGGAUCACCCAUGUCCGUCUGGUCUGUCUCGGCUGUCGAGGAUAUAGCUCGGUAUCCGCGCUAGAAGGCGGGAGUCGGU [Aenatbe mod 93] (Eterna round: R96, puzzle: Exclusion NG 3)	73.6	88.5	apparent KD of MS2 coat protein [1]: 66.7 nM
GAUCAUGCAGGAUAUACAUGGACCAUGAAAACAUGGAUUUCACAUGAGGAUCACCCAUGUAGAAGGGCAUGAUC [Omei Ex2 A9] (Eterna round: R97, puzzle: Exclusion 2)	82.1	777	–
GUGGAGUAAGGAUAUACAUGAGGAUCACCCAUGUGAGGGUAUGAGAAGGGAAUGAGAGGUAGAAGGUACGAGGG [JR_Exclu3_Sub070] (puzzle: Exclusion 3)	–	–	apparent KD of MS2 coat protein [2]: 111 nM
GGCCCUAAGGUCAGAUCCACAAGCUUUUUGCUCGUUUUAACAUGAGGAUCACCCAUGUCUAGUGGAUCUGAUCCUCA [Sensor v3, turn-off variant 2 (MOD of Indiso v.3)] (puzzle: Sensor v3, turn-off variant 2)	–	–	apparent KD of MS2 coat protein [3]: 16.9 nM; apparent KD of MS2 coat protein [2]: 12.1 nM; apparent KD of MS2 coat protein [4]: 20.8 nM
UCAGGCAAGUGUACAGCCAACAUGAGGAUCACCCAUGUCGGGAGAAGGACUGUUACACACCGCUCGUCUUACUUGCC [Eternabot (Original) Solution 35] (Eterna round: R97, puzzle: Sensor, turn-off variant 1)	18.3	23.1	–
UGCCGUUGAGGAUAUACAUAGAAAUAGAUUCAUGUAAAACUACAUGAGGAUCACCCAUGUAGAAGGCAAUGGCU [Mat - Exclusion 2 - JL Mod - D51] (Eterna round: R97, puzzle: Exclusion 2)	128	23.9	–
ACGCGUGGCUAGGAUAUGCAGAAAUCUAGCCAGGCAGAAGGAGCCACAUGAGGAUCACCCAUGUGGUGAUCCUC [eternacac ex6r4 sub1] (Eterna round: R97, puzzle: Exclusion 6)	10.8	9.98	–
CGGUUGUGAGGAUAUACAUGAGGAUCACCCAUGUCCAUCCUUUCGGUAACGAUAGAACGUAGAAGGCGCACCGU [Eternabot (L2) Solution 55] (Eterna round: R97, puzzle: Exclusion 3)	24.4	16	–
AAUUAUUUUUGAGGAUAUGGUAGUGAAACACUACCAGAAGGCGGAAUAAACAUGAGGAUCACCCAUGUGAGCCUGAUGCUUAUG [Ex NG1 #46] (Eterna round: R96, puzzle: Exclusion NG 1)	–	–	apparent KD of MS2 coat protein [1]: 17.9 nM
GGGUGACAUGAGGAUCACCCAUGUCAGGAUAUGGGCCCGGGCCCGAAAGGGCCCGGGUUUAGAAGGGACUGCCC [-44.4, -43.4 kcal, 22%A (-3 GC series)] (Eterna round: R97, puzzle: Exclusion 1)	59.3	42.9	–
UAGGUGUAGUUAGGAUAUCGUUGCGAUUAGCUACGAGAAGGAACACAUGAGGAUCACCCAUGUCUACUCAAGAAACGAAAGGAA [6th something] (Eterna round: R96, puzzle: Exclusion NG 1)	29	24.9	apparent KD of MS2 coat protein [1]: 22.1 nM
GAUCUGACAGGAUAUACAUGAGGAUCACCCAUGUGCGAGCUAGCGAAAGCUAGCUUAGGUAGAAGGGUCAGAUC [Ex3 dot plot directed v3] (puzzle: Exclusion 3)	–	–	apparent KD of MS2 coat protein [2]: 10.7 nM
AAAACGUGAGGAUAUACUGUGAGAUCUCAAGGUACGUUAAGACAUGAGGAUCACCCAUGUAGAAGGCGCCAAAA [Eternabot (Original) Solution 15] (Eterna round: R97, puzzle: Exclusion 2)	57.3	30.9	–
ACUCUUCUAGUUAGGAUAUGCAUCGGGCUUCCGCAGCAGAAGGAACAUGAGGAUCACCCAUGUCAAAUAAAAUC (Eterna round: R97, puzzle: Brourd's mod of Exclusion 4)	34.8	20.6	–
AACCAACAUGAGGAUCACCCAUGUGAGGAUAUAGCUAACGACCAGACCUGGAAUGUUGUUAGAAGGUGCAGGGU [Eternabot (Original) Solution 4] (Eterna round: R97, puzzle: Exclusion 1)	44.4	36.2	–
CUUUUGUGAGGAUAUCAGUAGUAAAAAAAUAAAUUUACUACUGAGAAGGCACAUGAGGAUCACCCAUGUUCCUC [salish99_ex4_r3_025] (puzzle: Exclusion 4)	–	–	apparent KD of MS2 coat protein [2]: 42.9 nM

Sequence	apparent KD of MS2 coat protein (input ligand: FMN 200 uM) [nM]	apparent KD of MS2 coat protein (input ligand: none) [nM]	further results
UUGCUCGUCUUGCUUCCUAACAUGAGGAUCACCCAUGUCGACGGUGAGACGCAAGAGCCAUCUCGCCGUUGAUCGUC [Eternabot (Original) Solution 4] (Eterna round: R97, puzzle: Sensor, turn-off variant 1)	134	159	–
UAAUUGAUUAAUAGAUUAUACAUGAGGAUCACCCAUGUAGAUCCUACGUGCCAUUUAAGUAGCUCGUCUUAUUAUUA [Sensor-V1 #65] (Eterna round: R97, puzzle: Sensor, turn-off variant 1)	59.4	64.5	–
CCUGCGUGAGGAUAUACAUGAGGAUCACCCAUGUCACAAUUAACACACUCCGCCUCACGUAGAAGGCACGCAUA [Tienarra] (Eterna round: R97, puzzle: Exclusion 3)	23.1	13.6	–
AUCGUGUCAGGAUAUUGAAGUUCCGGGCAGUCCACGGAGCUCGAGAAGGGACAUGAGGAUCACCCAUGUCUCAU [Eternabot (L1) Solution 84] (Eterna round: R97, puzzle: Exclusion 4)	21.4	18.6	–
AAAGAGUGAGGAUAUACAUGAGGAUCACCCAUGUACGUAAUACAAUACGGGUGACGACGUAGAAGGCAUUGCUG [Eternabot (Original) Solution 28] (Eterna round: R97, puzzle: Exclusion 3)	198	781	–
GAAAAGUGAGGAUAUGCUCGAUCCUGGCACCAAGUGAAGUCACUUGAGGAUCACCCAAGUAGAAGGCACAUAAA [Tiederes] (Eterna round: R97, puzzle: Exclusion 2)	206	55.3	–
CUUUUGUGAGGAUAUCAGUGGUAAUACAAUAGUAUUACUACUGAGAAGGCACAUGAGGAUCACCCAUGUUCCUC [Ex4 344 Omei mod 11] (puzzle: Exclusion 4)	–	–	apparent KD of MS2 coat protein [2]: 43.1 nM
GUUUGACAUGAGGAUCACCCAUGUAAGGAUAUACGAGUAGAUGAUAGAUAGAUAGUAAGUAGAAGGUACGUGUU [Translation] (Eterna round: R97, puzzle: Exclusion 1)	70.6	105	–
UACAUGAGGAUCACCCAUGUUUUGUCGUGUAUGGUAUUUAUCUAGGAUAUCAAUGUAUUUAUGUAUGAGAAGGAGAAUAUUAAU [JMF's solution 47] (Eterna round: R96, puzzle: Exclusion NG 3)	–	–	apparent KD of MS2 coat protein [1]: 32.3 nM
CUGUAACGAGCGUGAGCCUACAUGAGGAUCACCCAUGUGCUCGUCUUAUAACGUACUGUCACGUUAGUGAUAGUGCG [Sensor v3, turn-off variant 1 (MOD of Eli's v1-13 v.3)] (puzzle: Sensor v3, turn-off variant 1)	–	–	apparent KD of MS2 coat protein [3]: 115 nM; apparent KD of MS2 coat protein [2]: 297 nM; apparent KD of MS2 coat protein [4]: 104 nM
CUUUUGUGAGGAUAUCAGUAGUAAAAUAAUAAUAUUACUACUGAGAAGGCACAUGAGGAUCACCCAUGUUCCUC [Fiskers Ex 4 Super stable 44 mod 1] (puzzle: Exclusion 4)	–	–	apparent KD of MS2 coat protein [2]: 39 nM
UGUUGGUACGUAGGAUAUCCACCAACAGGUGGAAGGAUAUGGAAACAGAAGGUUCGCCAACAGGCGGAGAAGGACGUGGUAACU [pwkr exNG2 2xF7 2xFMN.24] (Eterna round: R96, puzzle: Exclusion NG 2)	126	255	apparent KD of MS2 coat protein [1]: 212 nM
GCAGCAUUGUUUACUAACAGUUACAUGAGGAUCACCCAUGUUCAGGAUAUGGUCUGGAUUACAGGCCAGAAGGGAACAAGCUGC [Eli exng3 - 031] (Eterna round: R96, puzzle: Exclusion NG 3)	9.09	15	apparent KD of MS2 coat protein [1]: 9.39 nM
CGGUCACUAGGAUAUCAGGAAAACUACAUGAGGAUCACCCAUGUACUGAGUGUAGGAGACUGAGAAGGAGUUCUUA [EX5 C.4] (Eterna round: R97, puzzle: Exclusion 5)	31.5	22.3	–
GGAAGAAUGAGUAGUCCUCAUUGAAGAGAACAGUAAGAAACAUGAGGAUCACCCAUGUAAGAACAAGCUUUUGCUCA [JR_Sv3TOV2_Sub002] (puzzle: Sensor v3, turn-off variant 2)	–	–	apparent KD of MS2 coat protein [3]: 168 nM; apparent KD of MS2 coat protein [2]: 699 nM; apparent KD of MS2 coat protein [4]: 259 nM
GAUCACUGAGGAUAUACACAGAUACAAAGUAUCUGAUAGUGACAUGAGGAUCACCCAUGUAGAAGGCAGAGGUC [Omei Ex2 B8] (Eterna round: R97, puzzle: Exclusion 2)	433	72.2	–
AAAAGAGGAGGAUAUGCAAACAAUGUAAAAGUGAAAGUAAAACAUGAGGAUCACCCAUGUAGAAGGCCUGAAAA [nah] (puzzle: Exclusion 2)	–	–	apparent KD of MS2 coat protein [3]: 20 nM; apparent KD of MS2 coat protein [2]: 20.4 nM; apparent KD of MS2 coat protein [4]: 20.2 nM
